Substitutions are numbered along the chain they refer to.

B1: PcOxP_DB01_C10 (scFv, V domains shown)
VH: EVQLLESGGGLVQPGGSLRLSCAASGFTFSDFYMEWVRQAPGKGLEWVAASRNKANDYTTEYADSVKGRFTISRDNSKNTLYLQMNSLRAEDTAVYYCARDYYGSSYWYFDVWGQGTLVTVSS
VL: DIVMTQSPDSLAVSLGERATINCTSSQSLLSSSHNKNYLAWYQQKPGQPPKLLIYGASNRYIGVPDRFSGSGSGTDFTLTISSLQAEDVAVYYCAQFYSYPLTFGGGTKVEIK
notes: scFv in periplasmic extract
B2: PcOxP_DB01_E02 (scFv, V domains shown)
VH: B1 VH with F32Y, A55G
VL: B1 VL with S25A, Q27E, L30Y, S33K, N35K, K36V, N37H
notes: scFv in periplasmic extract
B3: PcOxP_DB01_F03 (scFv, V domains shown)
VH: B1 VH with F32S, A55Y
VL: B1 VL with S25A, Q27E, L30Y, S33K, N35K, K36V, N37H
notes: scFv in periplasmic extract
B4: PcOxP_DB01_E07 (scFv, V domains shown)
VH: B1 VH with D31S, F32Y
VL: B1 VL with S25A, Q27E, L30Y, S33K, N35K, K36V, N37D
notes: scFv in periplasmic extract
B5: PcOxP_DB01_D11 (scFv, V domains shown)
VH: B1 VH with D31S, F32Y, F110N
VL: B1 VL with S25A, Q27E, L30Y, S33K, H34W, N35K, K36V, N37H
notes: scFv in periplasmic extract
B6: PcOxP_DB01_D12 (scFv, V domains shown)
VH: B1 VH with F32Y, A55Y
VL: B1 VL with S25A, Q27E, L30Y, S33K, N35K, K36V, N37H
notes: scFv in periplasmic extract
B7: PcOxP_DB01_F01 (scFv, V domains shown)
VH: B1 VH with T28P, S106P
VL: B1 VL with S25A, Q27E, L29V, L30Y, S33K, H34N, N35K, N37H, S99T
notes: scFv in periplasmic extract
B8: PcOxP_DB01_E09 (scFv, V domains shown)
VH: B1 VH with F27N
VL: B1 VL with S25A, Q27E, L30Y, S33K, N35K, K36V, N37H, Q96N
notes: scFv in periplasmic extract
B9: PcOxP_DB01_E03 (scFv, V domains shown)
VH: B1 VH with T28G, A49G, A55H
VL: B1 VL with T24K, Q27E, L29V, L30Y, S33K, N35K, N37H
notes: scFv in periplasmic extract
B10: PcOxP_DB01_E01 (scFv, V domains shown)
VH: B1 VH with F29S
VL: B1 VL with S25A, Q27E, L30Y, S33K, N35K, K36V, N37H, Y61V, Q96N
notes: scFv in periplasmic extract
B11: PcOxP_DB01_D07 (scFv, V domains shown)
VH: B1 VH with F32Y, S105D
VL: B1 VL with T24K, S25A, L29V, S33K, H34N, K36V, I62S
notes: scFv in periplasmic extract
B12: PcOxP_DB01_F07 (scFv, V domains shown)
VH: B1 VH with F27D, M34L, D57G, G104H
VL: B1 VL with S25A, Q27E, L30Y, S33K, N35K, K36V, N37H, Q96H
notes: scFv in periplasmic extract
B13: PcOxP_DB01_D10 (scFv, V domains shown)
VH: B1 VH with F29D
VL: B1 VL with S25A, Q27E, L30Y, S33K, N35K, K36V, N37H
notes: scFv in periplasmic extract
B14: PcOxP_DB01_E08 (scFv, V domains shown)
VH: B1 VH with F27D, D57A, S105Q
VL: B1 VL with S25A, Q27E, L30Y, S33K, N35K, K36V, N37H
notes: scFv in periplasmic extract
B15: PcOxP_DB01_D04 (scFv, V domains shown)
VH: B1 VH
VL: B1 VL with S25A, Q27E, L30W, S33K, N35K, K36V, N37H
notes: scFv in periplasmic extract
B16: PcOxP_DB01_F06 (scFv, V domains shown)
VH: B1 VH with F27D
VL: B1 VL with T24K, L30Y, S31Y, H34N, N35K, I62G, S99R
notes: scFv in periplasmic extract
B17: PcOxP_DB01_D06 (scFv, V domains shown)
VH: B1 VH with V112S
VL: B1 VL with S25A, Q27E, L30Y, S33K, N35K, K36V, N37H, S99I
notes: scFv in periplasmic extract
B18: PcOxP_DB01_D01 (scFv, V domains shown)
VH: B1 VH with D31S, F32Y
VL: B1 VL with S25A, Q27E, L30Y, S32P, S33K, N35K, K36V, N37H, S99I
notes: scFv in periplasmic extract

The target of one assay is BSA (UniProt P02769). As to the kind of experiment: scFv ELISA. (An ELISA detects its analyte on a solid surface through an enzyme-linked reagent.)
Chain of BSA (P02769 25-607 limits assumed): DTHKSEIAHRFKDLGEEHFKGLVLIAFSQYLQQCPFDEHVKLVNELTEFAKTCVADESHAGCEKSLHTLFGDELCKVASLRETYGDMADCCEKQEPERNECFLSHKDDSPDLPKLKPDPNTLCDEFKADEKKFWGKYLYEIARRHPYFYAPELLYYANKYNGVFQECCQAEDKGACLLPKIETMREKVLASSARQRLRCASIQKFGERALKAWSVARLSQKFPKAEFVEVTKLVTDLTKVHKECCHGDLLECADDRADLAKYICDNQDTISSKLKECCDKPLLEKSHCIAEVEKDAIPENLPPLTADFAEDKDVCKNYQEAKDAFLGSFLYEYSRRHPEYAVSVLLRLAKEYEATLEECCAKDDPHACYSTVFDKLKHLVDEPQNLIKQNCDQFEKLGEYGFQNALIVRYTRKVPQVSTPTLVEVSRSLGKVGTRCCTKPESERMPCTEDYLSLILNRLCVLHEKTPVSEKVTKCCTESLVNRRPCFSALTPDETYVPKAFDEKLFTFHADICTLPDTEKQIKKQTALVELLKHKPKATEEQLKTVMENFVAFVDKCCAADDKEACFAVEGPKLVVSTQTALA
For B1, the OD450 amounted to 0.07 OD450.
Same read-out and setting: as for B2, the figure is 0.07 OD450; as for B3, 0.08 OD450.
B4: the OD450 stood at 0.07 OD450.
In turn, B5 came in with an OD450 of 0.08 OD450.
The same measure, in the same setting: in the case of B6 it was 0.06 OD450; in that of B7, 0.08 OD450; in that of B8, 0.06 OD450.
Still for that read-out and setting: as for B9, the figure is 0.08 OD450; as for B10, 0.05 OD450; as for B11, 0.05 OD450.
Same read-out and setting: in the case of B12 it was 0.06 OD450; in that of B13, 0.06 OD450.
With B14, the OD450 is 0.06 OD450.
On the same count and under the same terms, as for B15, the figure is 0.07 OD450.
Still for that read-out and setting: in the case of B16 it was 0.07 OD450.
Still for that read-out and setting: in the case of B17 it was 0.06 OD450.
B18 registered an OD450 of 0.06 OD450.

A further assay addresses Peptide 1: Biotin-…-[Tyr(PC)]-acid. As to the kind of experiment: scFv ELISA.
B1 gave an OD450 of 0.13 OD450.
Same read-out and setting: as for B2, the figure is 0.46 OD450.
Same read-out and setting: in the case of B3 it was 0.8 OD450; in that of B4, 0.87 OD450.
Still for that read-out and setting: in the case of B5 it was 1.37 OD450; in that of B6, 0.85 OD450.
In turn, B7 came in with an OD450 of 0.6 OD450.
Same read-out and setting: in the case of B8 it was 0.77 OD450; in that of B9, 0.86 OD450; in that of B10, 0.75 OD450.
B11: the OD450 amounted to 0.14 OD450.
The same measure, in the same setting: as for B12, the figure is 0.31 OD450; as for B13, 0.15 OD450.
In turn, B14 came in with an OD450 of 0.47 OD450.
Turning to B15, the OD450 is 0.45 OD450.
The same measure, in the same setting: as for B16, the figure is 0.12 OD450; as for B17, 0.41 OD450.
On the same count and under the same terms, in the case of B18 it was 0.85 OD450.

The target of another assay is Peptide 5: Biotin-…-[Tyr(PC)]-acid. As to the kind of experiment: scFv ELISA.
B1 registered an OD450 of 0.53 OD450.
Same read-out and setting: in the case of B2 it was 1.02 OD450.
On the same count and under the same terms, in the case of B3 it was 1.41 OD450; in that of B4, 1.51 OD450.
Take B5: the OD450 came to 2.09 OD450.
Same read-out and setting: as for B6, the figure is 1.48 OD450.
The same measure, in the same setting: in the case of B7 it was 1.78 OD450; in that of B8, 1.26 OD450.
B9 displayed an OD450 of 1.54 OD450.
Same read-out and setting: in the case of B10 it was 1.48 OD450.
Take B11: the OD450 was determined as 0.6 OD450.
Same read-out and setting: in the case of B12 it was 0.81 OD450; in that of B13, 0.44 OD450; in that of B14, 0.82 OD450.
The same measure, in the same setting: as for B15, the figure is 0.87 OD450; as for B16, 0.53 OD450; as for B17, 0.69 OD450.
Same read-out and setting: in the case of B18 it was 1.12 OD450.

For another assay, the target named is T1, Peptide 4: Biotin-AGGGGSGGGGSGGGGSAAA-Tyr-acid (N-terminal biotin; C-terminal acid; no PC).
T1 construct: control peptide without PC
T1 peptide: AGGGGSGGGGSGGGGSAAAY
In words: scFv ELISA. Summed up: (§1)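 Bound scFv was read as OD450 after HRP–anti-V5 detection, TMB development and HCl stop. PPE with BSA was incubated 1 h at RT on BSA-blocked wells coated overnight at 4° C. with peptide, or on streptavidin wells loaded 1 h with biotinylated PC-peptides at 1 μg/mL.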
With B1, the OD450 was 0.04 OD450.
The same measure, in the same setting: as for B2, the figure is 0.05 OD450; as for B3, 0.07 OD450; as for B4, 0.05 OD450.
In turn, B5 registered an OD450 of 0.06 OD450.
For the molecule B6, the OD450 was determined as 0.05 OD450.
Same read-out and setting: in the case of B7 it was 0.05 OD450.
B8 registered an OD450 of 0.04 OD450.
Same read-out and setting: as for B9, the figure is 0.05 OD450; as for B10, 0.05 OD450; as for B11, 0.04 OD450.
B12: the OD450 amounted to 0.04 OD450.
On the same count and under the same terms, in the case of B13 it was 0.05 OD450; in that of B14, 0.05 OD450; in that of B15, 0.08 OD450.
Same read-out and setting: in the case of B16 it was 0.04 OD450; in that of B17, 0.04 OD450.
Same read-out and setting: as for B18, the figure is 0.05 OD450.

The next assay deals with T2, Peptide 8: Biotin-AEAAAKEAAAKEAAAKEAAAKAAA-Tyr-acid (N-terminal biotin; C-terminal acid; no PC).
T2 construct: control peptide without PC
T2 peptide: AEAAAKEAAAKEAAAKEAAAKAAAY
As to the kind of experiment: scFv ELISA. In short, it runs like this: as §1
On to B1, for which the OD450 amounted to 0.04 OD450.
Still for that read-out and setting: as for B2, the figure is 0.05 OD450.
In turn, B3 yielded an OD450 of 0.08 OD450.
The same measure, in the same setting: in the case of B4 it was 0.05 OD450; in that of B5, 0.05 OD450.
On the same count and under the same terms, in the case of B6 it was 0.05 OD450; in that of B7, 0.05 OD450; in that of B8, 0.04 OD450.
With B9, the OD450 came to 0.05 OD450.
Still for that read-out and setting: in the case of B10 it was 0.04 OD450; in that of B11, 0.04 OD450; in that of B12, 0.04 OD450.
Same read-out and setting: in the case of B13 it was 0.04 OD450; in that of B14, 0.04 OD450; in that of B15, 0.06 OD450.
On the same count and under the same terms, in the case of B16 it was 0.04 OD450.
The molecule B17 registered an OD450 of 0.04 OD450.
In turn, B18 yielded an OD450 of 0.04 OD450.
